Here are results for one molecule from paper PMC4950921.

Test [1] has as its target EphA2 L223R/L254R/V255R mutant (UniProt P29317).
The target is the same in test [2]. The source holds these as a separate data set.

Sequence of UniProt P29317 (P29317 24-976 L223R/L254R/V255R): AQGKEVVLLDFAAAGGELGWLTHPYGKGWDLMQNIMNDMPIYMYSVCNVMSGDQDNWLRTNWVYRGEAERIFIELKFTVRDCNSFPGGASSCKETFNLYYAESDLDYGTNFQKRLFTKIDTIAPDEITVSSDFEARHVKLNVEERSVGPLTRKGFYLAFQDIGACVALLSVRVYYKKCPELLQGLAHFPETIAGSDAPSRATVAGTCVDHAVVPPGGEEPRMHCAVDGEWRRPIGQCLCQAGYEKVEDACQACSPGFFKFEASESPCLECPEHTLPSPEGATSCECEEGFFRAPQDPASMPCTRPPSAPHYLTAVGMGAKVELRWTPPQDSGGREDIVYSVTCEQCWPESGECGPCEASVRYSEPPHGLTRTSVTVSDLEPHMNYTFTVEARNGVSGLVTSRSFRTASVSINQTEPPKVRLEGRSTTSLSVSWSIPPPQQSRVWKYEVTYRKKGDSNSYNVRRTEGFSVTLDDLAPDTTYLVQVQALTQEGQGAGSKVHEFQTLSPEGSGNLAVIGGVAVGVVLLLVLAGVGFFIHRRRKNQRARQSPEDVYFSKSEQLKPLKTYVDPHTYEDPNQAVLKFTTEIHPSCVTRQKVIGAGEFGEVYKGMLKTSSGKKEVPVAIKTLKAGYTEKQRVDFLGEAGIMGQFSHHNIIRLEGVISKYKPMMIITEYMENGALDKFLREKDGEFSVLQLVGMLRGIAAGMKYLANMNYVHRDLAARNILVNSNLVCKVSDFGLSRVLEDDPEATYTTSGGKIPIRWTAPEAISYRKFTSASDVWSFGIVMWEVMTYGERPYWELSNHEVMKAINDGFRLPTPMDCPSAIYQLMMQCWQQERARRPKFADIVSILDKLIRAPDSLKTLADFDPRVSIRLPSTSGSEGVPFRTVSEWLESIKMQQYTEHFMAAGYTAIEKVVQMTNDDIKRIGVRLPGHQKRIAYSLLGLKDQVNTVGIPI

As for YSAYPDSVPMMSGSGSK [YSA peptide with the GSGSK linker], in test [1], the decrease of EphA2 Ser897 phosphorylation, Western blot, HEK293T, 6 uM YSA came out at 35%. The suppression of migration of transfected HEK293T cells, transwell assay, 6 uM YSA in test [2] amounted to 25%.
